{
  "source": "paper doi:10.1101/2024.03.27.586990",
  "origin": "cited, not measured here",
  "molecular_target": "Asp27 (UniProt position 27, WNLPADLAWFK)",
  "settings": "unbound state (no inhibitor), as described by this article",
  "data": [
    {"substance": "Dihydrofolate reductase (DHFR) (Escherichia coli)", "values": [
      {"measurement": "pKa", "value": 6.5}
    ]}
  ]
}
